{
  "source": "patent US20260200991A1",
  "molecular_target": "Flag tagged HIV-1 Env with the 7aa Erbin PDZ domain binding sequence fused to its C-terminus (HIV-1)",
  "assay": "cell-based or functional assay",
  "data": [
    {"substance": "Ebola VP40-Erbin PDZ fusion protein", "values": [
      {"measurement": "normalized VLP ELISA (Env display on VLPs) (fold decrease)", "result": 2}
    ]}
  ]
}
